Molecular target: T1, αvβ3 integrin on the surface of M21 human melanoma cells (human, UniProt P06756 31-1048; P05106 27-788)
T1 construct: whole, on cells; also called αvβ3 integrin heterodimer
Test: immunofluorescence on M21 cells, detected with anti-mouse IL-12 p40 antibody and FITC secondary
Description: The specificity of mrIL-12vp binding to αᵥβ₃ integrin-positive cell lines was subsequently determined. M21, a human melanoma line which expresses αᵥβ₃ integrin on its surface (Felding-Habermann, et al. (1992) J. Clin. Invest. 89:2018-2022), was used as a αᵥβ₃ integrin-positive cell line for this analysis. Prior to the studies with mrIL-12vp, the expression of αᵥβ₃ integrin was confirmed based on intense labeling of M21 cells with the anti-αᵥβ₃ integrin antibody LM609 using flow cytometry. […] Immunofluorescence evaluation of cells grown on chamber slides confirmed specific binding of mrIL-12vp, but not mrIL-12 to M21 cells. There was no binding of mrIL-12 or mrIL-12vp to Saos-2 cells.
Immunofluorescence labeling was performed in accordance with standard methods (Teng, et al. (2002) Am. J. Physiol. Renal Physiol. 282:F1075-F1083). M21 or Saos-2 cells were incubated with 5 μg of either mrIL-12 or mrIL-12vp for 30 minutes at 37 C in a 5% CO₂ atmosphere. The cells were rinsed with PBS, and then fixed with freshly prepared 4% paraformaldehyde for 10 minutes at room temperature. Detection of mrIL-12 or mrIL-12vp binding to cells used an anti-mouse IL-12 p40 antibody, followed by three washes with PBS and incubation with FITC-conjugated goat anti-mouse IgG (1:200) for 1 hour in the dark. As a control, anti-mouse IL-12 p40 was omitted from the labeling process.

T1 sequence (P06756 31-1048, chain 1 of 2): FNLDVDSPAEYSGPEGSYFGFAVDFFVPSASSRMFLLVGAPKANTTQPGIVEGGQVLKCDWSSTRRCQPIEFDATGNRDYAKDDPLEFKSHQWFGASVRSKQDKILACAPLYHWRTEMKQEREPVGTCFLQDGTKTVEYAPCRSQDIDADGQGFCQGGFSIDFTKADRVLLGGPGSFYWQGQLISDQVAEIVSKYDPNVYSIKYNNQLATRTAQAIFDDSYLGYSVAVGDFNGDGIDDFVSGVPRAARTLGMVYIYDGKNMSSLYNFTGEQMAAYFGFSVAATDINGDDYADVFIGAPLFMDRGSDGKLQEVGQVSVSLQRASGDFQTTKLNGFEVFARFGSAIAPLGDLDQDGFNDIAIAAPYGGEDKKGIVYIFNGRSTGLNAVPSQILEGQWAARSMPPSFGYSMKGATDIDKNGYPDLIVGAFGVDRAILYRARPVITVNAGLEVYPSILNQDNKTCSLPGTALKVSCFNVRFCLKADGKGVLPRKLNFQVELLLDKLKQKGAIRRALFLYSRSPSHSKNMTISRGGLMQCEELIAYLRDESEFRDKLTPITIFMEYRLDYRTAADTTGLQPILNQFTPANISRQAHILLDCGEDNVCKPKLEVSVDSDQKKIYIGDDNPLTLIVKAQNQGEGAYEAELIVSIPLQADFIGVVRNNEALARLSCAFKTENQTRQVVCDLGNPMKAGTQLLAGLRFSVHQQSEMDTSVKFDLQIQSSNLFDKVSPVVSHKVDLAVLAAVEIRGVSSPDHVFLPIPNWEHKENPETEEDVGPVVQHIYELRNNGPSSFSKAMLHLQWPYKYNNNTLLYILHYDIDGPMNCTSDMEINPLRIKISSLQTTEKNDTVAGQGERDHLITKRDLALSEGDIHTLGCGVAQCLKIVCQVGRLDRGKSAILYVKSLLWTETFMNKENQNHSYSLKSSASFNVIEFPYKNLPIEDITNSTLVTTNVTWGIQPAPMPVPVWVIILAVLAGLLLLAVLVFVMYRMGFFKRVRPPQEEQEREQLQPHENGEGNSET
T1 sequence (P05106 27-788, chain 2 of 2): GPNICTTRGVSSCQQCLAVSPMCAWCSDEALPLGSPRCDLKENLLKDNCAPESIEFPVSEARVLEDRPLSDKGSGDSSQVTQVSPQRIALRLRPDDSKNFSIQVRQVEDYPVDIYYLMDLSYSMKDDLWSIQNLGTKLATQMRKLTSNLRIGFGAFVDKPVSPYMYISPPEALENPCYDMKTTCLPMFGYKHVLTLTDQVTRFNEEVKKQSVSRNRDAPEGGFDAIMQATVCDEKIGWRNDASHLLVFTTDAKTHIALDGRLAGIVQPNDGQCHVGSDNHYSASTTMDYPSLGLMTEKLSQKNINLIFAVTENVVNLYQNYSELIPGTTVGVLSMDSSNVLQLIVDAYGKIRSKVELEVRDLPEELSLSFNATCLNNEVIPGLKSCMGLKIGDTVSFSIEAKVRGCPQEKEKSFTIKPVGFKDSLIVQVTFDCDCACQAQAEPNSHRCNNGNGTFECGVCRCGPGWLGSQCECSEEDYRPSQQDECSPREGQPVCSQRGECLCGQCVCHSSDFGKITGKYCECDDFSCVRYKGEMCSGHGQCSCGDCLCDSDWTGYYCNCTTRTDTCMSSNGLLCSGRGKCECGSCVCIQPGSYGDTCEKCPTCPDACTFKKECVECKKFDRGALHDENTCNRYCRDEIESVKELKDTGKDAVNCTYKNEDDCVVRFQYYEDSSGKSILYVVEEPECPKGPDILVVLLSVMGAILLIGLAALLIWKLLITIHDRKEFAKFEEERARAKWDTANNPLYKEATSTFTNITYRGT

B1: murine recombinant IL-12 (mrIL-12) (ligand, mouse)
chain 1: RVIPVSGPARCLSQSRNLLKTTDDMVKTAREKLKHYSCTAEDIDHEDITRDQTSTLKTCLPLELHKNESCLATRETSSTTRGSCLPPQKTSLMMTLCLGSIYEDLKMYQTEFQAINAALQNHNHQQIILDKGMLVAIDELMQSLNHNGETLRQKPPVGEADPYRVKMKLCILLHAFSTRVVTINRVMGYLSSA
chain 2: MWELEKDVYVVEVDWTPDAPGETVNLTCDTPEEDDITWTSDQRHGVIGSGKTLTITVKEFLDAGQYTCHKGGETLSHSHLLLHKKENGIWSTEILKNFKNKTFLKCEAPNYSGRFTCSWLVQRNMDLKFNIKSSSSSPDSRAVTCGMASLSAEKVTLDQRDYEKYSVSCQEDVTCPTAEETLPIELALEARQQNKYENYSTSFFIRDIIKPDPPKNLQMKPLKNSQVEVSWEYPDSWSTPHSYFSLKFFVRIQRKKEKMKETEEGCNQKGAFLVEKTSTEVQCKGGNVCVQAQDRYYNSSCSKWACVPCRVRS
notes: Bought
Question: Does B1 bind?
Answer: no binding (tested: 5 µg)
